Series [1] has as its target histone H3 in untreated nucleosomes purified from HeLa cells, P68431.
Series [2] concerns the target H3K4me3 peptide (H3 tail residues 1-20), P68431.
The target of series [3] is H3K4me3T6ph peptide (H3 tail residues 1-20), P68431.
Series [4] has as its target H3K4me2T6ph peptide (H3 tail residues 1-20), P68431.
In series [5] the target is H3K4me2 peptide (H3 tail residues 1-20), P68431.

B1: purified recombinant active PKCζ (ProQinase) (protein)
chain: MPSRTGPKMEGSGGRVRLKAHYGGDIFITSVDAATTFEELCEEVRDMCRLHQQHPLTLKWVDSEGDPCTVSSQMELEEAFRLARQCRDEGLIIHVFPSTPEQPGLPCPGEDKSIYRRGARRWRKLYRANGHLFQAKRFNRRAYCGQCSERIWGLARQGYRCINCKLLVHKRCHGLVPLTCRKHMDSVMPSQEPPVDDKNEDADLPSEETDGIAYISSSRKHDSIKDDSEDLKPVIDGMDGIKISQGLGLQDFDLIRVIGRGSYAKVLLVRLKKNDQIYAMKVVKKELVHDDEDIDWVQTEKHVFEQASSNPFLVGLHSCFQTTSRLFLVIEYVNGGDLMFHMQRQRKLPEEHARFYAAEICIALNFLHERGIIYRDLKLDNVLLDADGHIKLTDYGMCKEGLGPGDTTSTFCGTPNYIAPEILRGEEYGFSVDWWALGVLMFEMMAGRSPFDIITDNPDMNTEDYLFQVILEKPIRIPRFLSVKASHVLKGFLNKDPKERLGCRPQTGFSDIKSHAFFRSIDWDLLEKKQALPPFQPQITDDYGLDNFDTQFTSEPVQLTPDDEDAIKRIDQSEFEGFEYINPLLLSTEESV
On to B1, for which the “phosphorylation of nucleosomes at H3T6 (in vitro kinase assay, Western blot with α-H3T6ph)” value (“phosphorylation of nucleosomes at H3T6” below) in series [1] is “only PKCα, 131 and 132 phosphorylate nucleosomes at H3T6 (PKCζ tested, no phosphorylation)”.

B2: purified recombinant active PKCι (ProQinase) (protein)
chain: MSHTVAGGGSGDHSHQVRVKAYYRGDIMITHFEPSISFEGLCNEVRDMCSFDNEQLFTMKWIDEEGDPCTVSSQLELEEAFRLYELNKDSELLIHVFPCVPERPGMPCPGEDKSIYRRGARRWRKLYCANGHTFQAKRFNRRAHCAICTDRIWGLGRQGYKCINCKLLVHKKCHKLVTIECGRHSLPQEPVMPMDQSSMHSDHAQTVIPYNPSSHESLDQVGEEKEAMNTRESGKASSSLGLQDFDLLRVIGRGSYAKVLLVRLKKTDRIYAMKVVKKELVNDDEDIDWVQTEKHVFEQASNHPFLVGLHSCFQTESRLFFVIEYVNGGDLMFHMQRQRKLPEEHARFYSAEISLALNYLHERGIIYRDLKLDNVLLDSEGHIKLTDYGMCKEGLRPGDTTSTFCGTPNYIAPEILRGEDYGFSVDWWALGVLMFEMMAGRSPFDIVGSSDNPDQNTEDYLFQVILEKQIRIPRSLSVKAASVLKSFLNKDPKERLGCHPQTGFADIQGHPFFRNVDWDMMEQKQVVPPFKPNISGEFGLDNFDSQFTNEPVQLTPDDDDIVRKIDQSEFEGFEYINPLLMSAEECV
On to B2, for which the “phosphorylation of nucleosomes at H3T6” value in series [1] was “only PKCα, 131 and 132 phosphorylate nucleosomes at H3T6 (PKCι tested, no phosphorylation)”.

B3: purified recombinant active PKCµ (ProQinase) (protein)
chain: MSAPPVLRPPSPLLPVAAAAAAAAAALVPGSGPGPAPFLAPVAAPVGGISFHLQIGLSREPVLLLQDSSGDYSLAHVREMACSIVDQKFPECGFYGMYDKILLFRHDPTSENILQLVKAASDIQEGDLIEVVLSASATFEDFQIRPHALFVHSYRAPAFCDHCGEMLWGLVRQGLKCEGCGLNYHKRCAFKIPNNCSGVRRRRLSNVSLTGVSTIRTSSAELSTSAPDEPLLQKSPSESFIGREKRSNSQSYIGRPIHLDKILMSKVKVPHTFVIHSYTRPTVCQYCKKLLKGLFRQGLQCKDCRFNCHKRCAPKVPNNCLGEVTINGDLLSPGAESDVVMEEGSDDNDSERNSGLMDDMEEAMVQDAEMAMAECQNDSGEMQDPDPDHEDANRTISPSTSNNIPLMRVVQSVKHTKRKSSTVMKEGWMVHYTSKDTLRKRHYWRLDSKCITLFQNDTGSRYYKEIPLSEILSLEPVKTSALIPNGANPHCFEITTANVVYYVGENVVNPSSPSPNNSVLTSGVGADVARMWEIAIQHALMPVIPKGSSVGTGTNLHRDISVSISVSNCQIQENVDISTVYQIFPDEVLGSGQFGIVYGGKHRKTGRDVAIKIIDKLRFPTKQESQLRNEVAILQNLHHPGVVNLECMFETPERVFVVMEKLHGDMLEMILSSEKGRLPEHITKFLITQILVALRHLHFKNIVHCDLKPENVLLASADPFPQVKLCDFGFARIIGEKSFRRSVVGTPAYLAPEVLRNKGYNRSLDMWSVGVIIYVSLSGTFPFNEDEDIHDQIQNAAFMYPPNPWKEISHEAIDLINNLLQVKMRKRYSVDKTLSHPWLQDYQTWLDLRELECKIGERYITHESDDLRWEKYAGEQGLQYPTHLINPSASHSDTPETEETEMKALGERVSIL
For B3, the “phosphorylation of nucleosomes at H3T6” value in series [1] was “only PKCα, 131 and 132 phosphorylate nucleosomes at H3T6 (PKCµ tested, no phosphorylation)”.

B4: baculovirus expressed and purified GST-JARID1B (protein)
chain: MEAATTLHPGPRPALPLGGPGPLGEFLPPPECPVFEPSWEEFADPFAFIHKIRPIAEQTGICKVRPPPDWQPPFACDVDKLHFTPRIQRLNELEAQTRVKLNFLDQIAKYWELQGSTLKIPHVERKILDLFQLNKLVAEEGGFAVVCKDRKWTKIATKMGFAPGKAVGSHIRGHYERILNPYNLFLSGDSLRCLQKPNLTTDTKDKEYKPHDIPQRQSVQPSETCPPARRAKRMRAEAMNIKIEPEETTEARTHNLRRRMGCPTPKCENEKEMKSSIKQEPIERKDYIVENEKEKPKSRSKKATNAVDLYVCLLCGSGNDEDRLLLCDGCDDSYHTFCLIPPLHDVPKGDWRCPKCLAQECSKPQEAFGFEQAARDYTLRTFGEMADAFKSDYFNMPVHMVPTELVEKEFWRLVSTIEEDVTVEYGADIASKEFGSGFPVRDGKIKLSPEEEEYLDSGWNLNNMPVMEQSVLAHITADICGMKLPWLYVGMCFSSFCWHIEDHWSYSINYLHWGEPKTWYGVPGYAAEQLENVMKKLAPELFVSQPDLLHQLVTIMNPNTLMTHEVPVYRTNQCAGEFVITFPRAYHSGFNQGFNFAEAVNFCTVDWLPLGRQCVEHYRLLHRYCVFSHDEMICKMASKADVLDVVVASTVQKDMAIMIEDEKALRETVRKLGVIDSERMDFELLPDDERQCVKCKTTCFMSAISCSCKPGLLVCLHHVKELCSCPPYKYKLRYRYTLDDLYPMMNALKLRAESYNEWALNVNEALEAKINKKKSLVSFKALIEESEMKKFPDNDLLRHLRLVTQDAEKCASVAQQLLNGKRQTRYRSGGGKSQNQLTVNELRQFVTQLYALPCVLSQTPLLKDLLNRVEDFQQHSQKLLSEETPSAAELQDLLDVSFEFDVELPQLAEMRIRLEQARWLEEVQQACLDPSSLTLDDMRRLIDLGVGLAPYSAVEKAMARLQELLTVSEHWDDKAKSLLKARPRHSLNSLATAVKEIEEIPAYLPNGAALKDSVQRARDWLQDVEGLQAGGRVPVLDTLIELVTRGRSIPVHLNSLPRLETLVAEVQAWKECAVNTFLTENSPYSLLEVLCPRCDIGLLGLKRKQRKLKEPLPNGKKKSTKLESLSDLERALTESKETASAMATLGEARLREMEALQSLRLANEGKLLSPLQDVDIKICLCQKAPAAPMIQCELCRDAFHTSCVAVPSISQGLRIWLCPHCRRSEKPPLEKILPLLASLQRIRVRLPEGDALRYMIERTVNWQHRAQQLLSSGNLKFVQDRVGSGLLYSRWQASAGQVSDTNKVSQPPGTTSFSLPDDWDNRTSYLHSPFSTGRSCIPLHGVSPEVNELLMEAQLLQVSLPEIQELYQTLLAKPSPAQQTDRSSPVRPSSEKNDCCRGKRDGINSLERKLKRRLEREGLSSERWERVKKMRTPKKKKIKLSHPKDMNNFKLERERSYELVRSAETHSLPSDTSYSEQEDSEDEDAICPAVSCLQPEGDEVDWVQCDGSCNQWFHQVCVGVSPEMAEKEDYICVRCTVKDAPSRK
Consider B4, for which the “demethylation assay, mass spectrometry” value in series [2] is “Recombinant, purified JARID1B (FIG. 9) efficiently demethylates H3K4me3 and H3K4me2 peptides”; in series [3], “demethylation of tri- and dimethyl H3K4 peptides phosphorylated at T6 (H3K4me3T6ph and H3K4me2T6ph) is severely impaired”; in series [4], “demethylation of tri- and dimethyl H3K4 peptides phosphorylated at T6 (H3K4me3T6ph and H3K4me2T6ph) is severely impaired”; in series [5] it was “Recombinant, purified JARID1B (FIG. 9) efficiently demethylates H3K4me3 and H3K4me2 peptides”.

The values are drawn from patent US20120329854.
